The assay concerns the target T1, Ser-PRLR (1-210) (UniProt P16471 25-234).
T1 construct: range 1-210; also called PRL receptor; prolactin receptor
T1 sequence: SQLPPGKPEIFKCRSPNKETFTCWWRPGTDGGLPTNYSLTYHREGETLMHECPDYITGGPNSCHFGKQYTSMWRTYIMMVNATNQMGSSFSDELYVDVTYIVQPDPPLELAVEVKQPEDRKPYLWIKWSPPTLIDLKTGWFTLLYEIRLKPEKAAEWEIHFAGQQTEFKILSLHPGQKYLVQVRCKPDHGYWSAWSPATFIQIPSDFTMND
Nature of the assay: SPR (Biacore 3000): Ser-PRLR (1-210) amine-coupled to a CM5 chip, analogue injected at 500 nM. The method, then: Ser-PRLR (1-210) (25 μg/ml in 10 mM sodium acetate, pH 3.0), was injected into a Biacore 3000 instrument at a flow rate of 5 μl/min and coupled to a CM5 sensor chip by amine coupling chemistry. […] Data evaluation was performed in BiaEvaluation 4.1. Regeneration was accomplished with 4.5 M MgCl₂ between runs.
The PRL receptor binding affinity of G129R-PRL was compared to that of N56D,G129R-PRL (corresponding to the deamidated form of G129R-PRL), using the Biacore-assay. […] Thus, deamidation of […] markedly reduces the receptor binding affinity
A general note: In SPR one partner is held on a chip, and binding of the other changes the refractive index at the surface.

Positions count from the first letter of the chain named. Names and notes keep the numbering of the source.

B1: G129R-PRL (ligand)
chain: LPICPGGAARCQVTLRDLFDRAVVLSHYIHNLSSEMFSEFDKRYTHGRGFITKAINSCHTSSLATPEDKEQAQQMNQKDFLSLIVSILRSWNEPLYHLVTEVRGMQEAPEAILSKAVEIEEQTKRLLERMELIVSQVHPETKENEIYPVWSGLPSLQMADEESRLSAYYNLLHCLRRDSHKIDNYLKLLKCRIIHNNNC
notes: also called G129R-hPRL
In the case of B1, the Kd (as a rule, the constant that tells how readily two partners part at equilibrium) worked out at 27 nM.

B2: N56D,G129R-PRL (ligand)
chain: B1 chain with N56D
notes: Recombinant mutant that mimics G129R-PRL deamidated at Asn-56; also called deamidated form of G129R-PRL
Molecule B2 gave a Kd of 313 nM.

Values taken from patent publication US20100292444A1 (published 2010).
